Here are results for two molecules from paper PMC10104587 (Proceedings of the National Academy of Sciences of the …, 2023).

First the molecules themselves.
B1: CNGB1 subunit of the bovine rod CNG channel (natural protein)
chain: MLGWVQRVLPQPPGTPQKTKQEEEGTEPEPELEPKPETAPEETELEEVSLPPEEPCVGKEVAAVTLGPQGTQETALTPPTSLQAQVSVAPEAHSSPRGWVLTWLRKGVEKVVPQPAHSSRPSQNIAAGLESPDQQAGAQILGQCGTGGSDEPSEPSRAEDPGPGPWLLRWFEQNLEKMLPQPPKISEGWRDEPTDAALGPEPPGPALEIKPMLQAQESPSLPAPGPPEPEEEPIPEPQPTIQASSLPPPQDSARLMAWILHRLEMALPQPVIRGKGGEQESDAPVTCDVQTISILPGEQEESHLILEEVDPHWEEDEHQEGSTSTSPRTSEAAPADEEKGKVVEQTPRELPRIQEEKEDEEEEKEDGEEEEEEGREKEEEEGEEKEEEEGREKEEEEGEKKEEEGREKEEEEGGEKEDEEGREKEEEEGRGKEEEEGGEKEEEEGRGKEEVEGREEEEDEEEEQDHSVLLDSYLVPQSEEDRSEESETQDQSEVGGAQAQGEVGGAQALSEESETQDQSEVGGAQDQSEVGGAQAQGEVGGAQEQDGVGGAQDQSTSHQELQEEALADSSGVPATEEHPELQVEDADADSRPLIAEENPPSPVQLPLSPAKSDTLAVPGSATGSLRKRLPSQDDEAEELKMLSPAASPVVAWSDPTSPQGTDDQDRATSTASQNSAIINDRLQELVKLFKERTEKVKEKLIDPDVTSDEESPKPSPAKKAPEPAPEVKPAEAGQVEEEHYCEMLCCKFKRRPWKKYQFPQSIDPLTNLMYILWLFFVVLAWNWNCWLIPVRWAFPYQTPDNIHLWLLMDYLCDLIYLLDITVFQMRLQFVRGGDIITDKKEMRNNYVKSQRFKMDMLCLLPLDLLYLKFGVNPLLRLPRCLKYMAFFEFNNRLESILSKAYVYRVIRTTAYLLYSLHLNSCLYYWASAYEGLGSTHWVYDGVGNSYIRCYYWAVKTLITIGGLPDPRTLFEIVFQGLNYFTGVFAFSVMIGQMRDVVGAATAGQTYYRSCMDSTVKYMNFYKIPRSVQNRVKTWYEYTWHSQGMLDESELMVQLPDKMRLDLAIDVNYSIVSKVALFQGCDRQMIFDMLKRLRSVVYLPNDYVCKKGEIGREMYIIQAGQVQVLGGPDGKSVLVTLKAGSVFGEISLLAVGGGNRRTANVVAHGFTNLFILDKKDLNEILVHYPESQKLLRKKARRMLRNNNKPKEKSVLILPPRAGTPKLFNAALAAAGKMGAKGGRGGRLALLRARLKELAALEAAARQQQLLEQAKSSEDAAVGEEGSASPEQPPRPEPPAPEAPAPEPTAPEPLAPEAPAPEAPAPSSPPPASQERPEGDKDAARPEEHPVRIHVTLGPDPSEQILLVEVPEKQEEKEKKEEETEEKEEGEEARKEKEEE

The target in one series is bovine calmodulin (bovine, UniProt P62157 1-149). Nature of the series: limited proteolysis-coupled mass spectrometry.
Series [1] has as its target B1. Nature of the series: cryo-EM structure.
The series “cryo-EM structure” concerns the molecule itself. Nature of the series: cryo-EM structure.

As to B1, the binding result in the series with bovine calmodulin is listed as “binds”.

B2: CNGA1 subunit of the bovine rod CNG channel (natural protein, UniProt Q00194 1-690, looked up)
chain: MKKVIINTWHSFVNIPNVVGPDVEKEITRMENGACSSFSGDDDDSASMFEESETENPHARDSFRSNTHGSGQPSQREQYLPGAIALFNVNNSSNKEQEPKEKKKKKKEKKSKPDDKNENKKDPEKKKKKEKDKDKKKKEEKGKDKKEEEKKEVVVIDPSGNTYYNWLFCITLPVMYNWTMIIARACFDELQSDYLEYWLAFDYLSDVVYLLDMFVRTRTGYLEQGLLVKEERKLIDKYKSTFQFKLDVLSVIPTDLLYIKFGWNYPEIRLNRLLRISRMFEFFQRTETRTNYPNIFRISNLVMYIIIIIHWNACVYFSISKAIGFGNDTWVYPDVNDPDFGRLARKYVYSLYWSTLTLTTIGETPPPVRDSEYFFVVADFLIGVLIFATIVGNIGSMISNMNAARAEFQARIDAIKQYMHFRNVSKDMEKRVIKWFDYLWTNKKTVDEREVLKYLPDKLRAEIAINVHLDTLKKVRIFADCEAGLLVELVLKLQPQVYSPGDYICKKGDIGREMYIIKEGKLAVVADDGITQFVVLSDGSYFGEISILNIKGSKAGNRRTANIKSIGYSDLFCLSKDDLMEALTEYPDAKGMLEEKGKQILMKDGLLDINIANAGSDPKDLEEKVTRMESSVDLLQTRFARILAEYESMQQKLKQRLTKVEKFLKPLIDTEFSAIEGSGTESGPTDSTQD
On to B2, for which the binding result (in series [1]; in “cryo-EM structure”; with bovine calmodulin) was “binds” in each case.
